{"source": "patent US20240141072A1", "about": "(published 2024)", "binders": {"B1": {"name": "biotinylated human DLL3 protein expressed as a human IgG1 fusion protein (Fc fusion, not shown: a dimerising Fc or GST)", "chain": "AGVFELQIHSFGPGPGPGAPRSPCSARLPCRLFFRVCLKPGLSEEAAESPCALGAALSARGPVYTEQPGAPAPDLPLPDGLLQVPFRDAWPGTFSFIIETWREELGDQIGGPAWSLLARVAGRRRLAAGGPWARDIQRAGAWELRFSYRARCEPPAVGTACTRLCRPRSAPSRCGPGLRPCAPLEDECEAPLVCRAGCSPEHGFCEQPGECRCLEGWTGPLCTVPVSTSSCLSPRGPSSATTGCLVPGPGPCDGNPCANGGSCSETPRSFECTCPRGFYGLRCEVSGVTCADGPCFNGGLCVGGADPDSAYICHCPPGFQGSNCEKRVDRCSLQPCRNGGLCLDLGHALRCRCRAGFAGPRCEHDLDDCAGRACANGGTCVEGGGAHRCSCALGFGGRDCRERADPCAARPCAHGGRCYAHFSGLVCACAPGYMGARCEFPVHPDGASALPAAPPGLRPGDPQRYL", "modifications": "biotinylated"}}, "assay_in_all_cases": "Octet BLI; biotinylated huDLL3-IgG1 fusion on streptavidin tips; single 50 nM trispecific, conditioned medium", "key": {"[1]": {"molecular_target": "T1, anti-DLL3 trispecific protein with DLL3 binding domain 41D07", "T1 construct": "trispecific, one chain", "protocol": "(§1) Using the conditioned medium with known concentrations of the anti-DLL3 trispecific proteins, the relative binding affinities of the anti-DLL3 trispecific proteins toward human DLL3 protein were measured using a method where biotinylated version of human DLL3 protein were expressed as a human IgG1 fusion protein, and the binding affinity measurement was carried out in an Octet instrument with streptavidin tips."}, "[2]": {"molecular_target": "T2, anti-DLL3 trispecific protein with DLL3 binding domain 41D03", "T2 construct": "trispecific, one chain", "protocol": "as §1"}, "[3]": {"molecular_target": "T3, anti-DLL3 trispecific protein with DLL3 binding domain 42G05", "T3 construct": "trispecific, one chain", "T3 sequence (chain, as listed by the source)": "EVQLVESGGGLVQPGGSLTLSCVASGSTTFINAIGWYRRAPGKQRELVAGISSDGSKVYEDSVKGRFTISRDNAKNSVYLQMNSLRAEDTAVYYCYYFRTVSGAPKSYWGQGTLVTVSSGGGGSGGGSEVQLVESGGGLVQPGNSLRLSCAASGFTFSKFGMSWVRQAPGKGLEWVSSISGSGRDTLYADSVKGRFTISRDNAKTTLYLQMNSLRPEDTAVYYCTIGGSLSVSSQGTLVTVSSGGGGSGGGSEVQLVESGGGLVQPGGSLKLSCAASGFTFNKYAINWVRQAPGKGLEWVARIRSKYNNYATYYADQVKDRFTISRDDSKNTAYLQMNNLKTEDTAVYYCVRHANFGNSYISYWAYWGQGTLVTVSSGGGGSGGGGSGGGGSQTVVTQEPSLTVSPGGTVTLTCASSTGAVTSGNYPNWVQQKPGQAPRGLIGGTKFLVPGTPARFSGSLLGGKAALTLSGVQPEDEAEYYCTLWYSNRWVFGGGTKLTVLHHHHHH", "protocol": "as §1"}, "[4]": {"molecular_target": "T4, anti-DLL3 trispecific protein with DLL3 binding domain 42A08", "T4 construct": "trispecific, one chain", "protocol": "as §1"}, "[5]": {"molecular_target": "T5, anti-DLL3 trispecific protein with DLL3 binding domain 51D01", "T5 construct": "trispecific, one chain", "protocol": "as §1"}, "[6]": {"molecular_target": "T6, anti-DLL3 trispecific protein with DLL3 binding domain 52D04", "T6 construct": "trispecific, one chain; same domain order as the TAC protein m79; also called 52D4", "T6 sequence (chain, as listed by the source)": "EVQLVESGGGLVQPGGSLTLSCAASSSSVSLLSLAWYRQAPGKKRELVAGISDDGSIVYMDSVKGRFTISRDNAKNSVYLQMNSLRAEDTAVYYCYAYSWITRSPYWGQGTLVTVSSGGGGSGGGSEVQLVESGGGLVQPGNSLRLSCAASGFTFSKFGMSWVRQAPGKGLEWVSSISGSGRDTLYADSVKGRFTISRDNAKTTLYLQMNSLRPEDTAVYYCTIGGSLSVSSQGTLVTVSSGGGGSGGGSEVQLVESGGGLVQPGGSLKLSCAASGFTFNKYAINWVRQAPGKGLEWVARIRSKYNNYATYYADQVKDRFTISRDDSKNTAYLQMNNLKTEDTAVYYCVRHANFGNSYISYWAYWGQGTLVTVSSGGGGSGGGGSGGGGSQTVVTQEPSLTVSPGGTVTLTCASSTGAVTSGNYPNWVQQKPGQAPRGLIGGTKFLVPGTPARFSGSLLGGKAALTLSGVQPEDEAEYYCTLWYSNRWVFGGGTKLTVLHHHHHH", "protocol": "as §1"}, "[7]": {"molecular_target": "T7, anti-DLL3 trispecific protein with DLL3 binding domain 42F08", "T7 construct": "trispecific, one chain", "protocol": "as §1"}, "[8]": {"molecular_target": "T8, anti-DLL3 trispecific protein with DLL3 binding domain 51E02", "T8 construct": "trispecific, one chain", "protocol": "as §1"}, "[9]": {"molecular_target": "T9, anti-DLL3 trispecific protein with DLL3 binding domain 51F02", "T9 construct": "trispecific, one chain", "T9 sequence (chain, as listed by the source)": "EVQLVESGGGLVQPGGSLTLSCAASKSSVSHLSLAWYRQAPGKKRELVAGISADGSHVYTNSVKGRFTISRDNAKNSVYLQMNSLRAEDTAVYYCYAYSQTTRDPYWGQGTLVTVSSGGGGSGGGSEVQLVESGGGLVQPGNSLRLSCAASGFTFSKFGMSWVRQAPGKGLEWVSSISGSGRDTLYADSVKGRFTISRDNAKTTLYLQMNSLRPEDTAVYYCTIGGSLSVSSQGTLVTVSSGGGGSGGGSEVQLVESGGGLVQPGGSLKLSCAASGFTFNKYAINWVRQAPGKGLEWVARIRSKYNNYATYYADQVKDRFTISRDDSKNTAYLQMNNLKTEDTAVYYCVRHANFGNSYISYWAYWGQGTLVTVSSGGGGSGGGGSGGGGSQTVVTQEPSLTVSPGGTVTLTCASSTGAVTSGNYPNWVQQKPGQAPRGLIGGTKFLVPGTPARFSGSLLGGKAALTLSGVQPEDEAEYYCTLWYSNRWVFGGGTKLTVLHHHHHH", "protocol": "as §1"}, "[10]": {"molecular_target": "T10, anti-DLL3 trispecific protein with DLL3 binding domain 51D03", "T10 construct": "trispecific, one chain", "protocol": "as §1"}, "[11]": {"molecular_target": "T11, anti-DLL3 trispecific protein with DLL3 binding domain 53C04", "T11 construct": "trispecific, one chain", "protocol": "as §1"}, "[12]": {"molecular_target": "T12, anti-DLL3 trispecific protein with DLL3 binding domain 42E02", "T12 construct": "trispecific, one chain", "protocol": "as §1"}, "[13]": {"molecular_target": "T13, anti-DLL3 trispecific protein with DLL3 binding domain 53B05", "T13 construct": "trispecific, one chain", "protocol": "as §1"}, "[14]": {"molecular_target": "T14, anti-DLL3 trispecific protein with DLL3 binding domain 51H04", "T14 construct": "trispecific, one chain", "T14 sequence (chain, as listed by the source)": "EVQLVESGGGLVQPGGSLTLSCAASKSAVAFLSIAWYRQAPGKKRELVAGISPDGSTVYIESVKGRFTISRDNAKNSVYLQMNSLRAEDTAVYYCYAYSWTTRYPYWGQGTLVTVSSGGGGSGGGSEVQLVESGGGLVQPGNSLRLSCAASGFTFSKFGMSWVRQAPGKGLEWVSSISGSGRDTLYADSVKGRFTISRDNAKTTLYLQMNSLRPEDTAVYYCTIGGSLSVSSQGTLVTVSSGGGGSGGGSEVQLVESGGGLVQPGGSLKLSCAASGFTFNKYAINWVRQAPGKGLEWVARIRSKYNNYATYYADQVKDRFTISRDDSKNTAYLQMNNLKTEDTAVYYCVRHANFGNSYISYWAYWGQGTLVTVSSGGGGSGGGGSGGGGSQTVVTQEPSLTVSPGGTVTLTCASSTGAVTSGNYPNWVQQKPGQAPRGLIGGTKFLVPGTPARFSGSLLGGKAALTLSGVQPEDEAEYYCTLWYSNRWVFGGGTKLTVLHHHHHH", "protocol": "as §1"}, "[15]": {"molecular_target": "T15, anti-DLL3 trispecific protein with DLL3 binding domain 51G10", "T15 construct": "trispecific, one chain", "T15 sequence (chain, as listed by the source)": "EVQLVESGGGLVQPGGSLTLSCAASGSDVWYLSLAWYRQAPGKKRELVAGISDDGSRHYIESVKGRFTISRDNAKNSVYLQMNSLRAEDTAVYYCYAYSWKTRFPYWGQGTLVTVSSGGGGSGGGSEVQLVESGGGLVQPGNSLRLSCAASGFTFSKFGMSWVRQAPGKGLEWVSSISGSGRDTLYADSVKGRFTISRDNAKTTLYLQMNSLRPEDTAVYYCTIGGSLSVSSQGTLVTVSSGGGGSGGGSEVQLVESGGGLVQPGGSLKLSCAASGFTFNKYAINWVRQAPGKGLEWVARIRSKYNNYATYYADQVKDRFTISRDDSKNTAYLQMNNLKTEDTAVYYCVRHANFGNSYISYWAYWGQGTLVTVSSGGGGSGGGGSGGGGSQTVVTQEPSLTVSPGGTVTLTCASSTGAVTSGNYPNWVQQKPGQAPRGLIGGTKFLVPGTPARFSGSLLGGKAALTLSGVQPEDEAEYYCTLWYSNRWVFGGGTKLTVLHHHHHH", "protocol": "as §1"}, "[16]": {"molecular_target": "T16, anti-DLL3 trispecific protein with DLL3 binding domain 51A01", "T16 construct": "trispecific, one chain", "T16 sequence (chain, as listed by the source)": "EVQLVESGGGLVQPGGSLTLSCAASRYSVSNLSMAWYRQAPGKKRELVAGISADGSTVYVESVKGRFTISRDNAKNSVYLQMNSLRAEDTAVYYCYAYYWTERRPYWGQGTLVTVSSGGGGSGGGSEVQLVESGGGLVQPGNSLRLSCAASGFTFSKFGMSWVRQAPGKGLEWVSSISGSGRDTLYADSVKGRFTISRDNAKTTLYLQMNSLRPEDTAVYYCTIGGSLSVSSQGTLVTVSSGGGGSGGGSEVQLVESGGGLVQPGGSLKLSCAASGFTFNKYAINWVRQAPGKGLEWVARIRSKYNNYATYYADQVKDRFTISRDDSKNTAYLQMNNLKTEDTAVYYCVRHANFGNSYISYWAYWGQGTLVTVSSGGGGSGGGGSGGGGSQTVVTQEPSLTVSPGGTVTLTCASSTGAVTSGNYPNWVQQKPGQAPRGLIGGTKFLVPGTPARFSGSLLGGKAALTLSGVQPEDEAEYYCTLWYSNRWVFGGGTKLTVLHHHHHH", "protocol": "as §1"}, "[17]": {"molecular_target": "T17, anti-DLL3 trispecific protein with DLL3 binding domain 51F03", "T17 construct": "trispecific, one chain; also called 51F3", "protocol": "as §1"}, "[18]": {"molecular_target": "T18, anti-DLL3 trispecific protein with DLL3 binding domain 42F10", "T18 construct": "trispecific, one chain", "protocol": "as §1"}, "[19]": {"molecular_target": "T19, anti-DLL3 trispecific protein with DLL3 binding domain 42D05", "T19 construct": "trispecific, one chain", "T19 sequence (chain, as listed by the source)": "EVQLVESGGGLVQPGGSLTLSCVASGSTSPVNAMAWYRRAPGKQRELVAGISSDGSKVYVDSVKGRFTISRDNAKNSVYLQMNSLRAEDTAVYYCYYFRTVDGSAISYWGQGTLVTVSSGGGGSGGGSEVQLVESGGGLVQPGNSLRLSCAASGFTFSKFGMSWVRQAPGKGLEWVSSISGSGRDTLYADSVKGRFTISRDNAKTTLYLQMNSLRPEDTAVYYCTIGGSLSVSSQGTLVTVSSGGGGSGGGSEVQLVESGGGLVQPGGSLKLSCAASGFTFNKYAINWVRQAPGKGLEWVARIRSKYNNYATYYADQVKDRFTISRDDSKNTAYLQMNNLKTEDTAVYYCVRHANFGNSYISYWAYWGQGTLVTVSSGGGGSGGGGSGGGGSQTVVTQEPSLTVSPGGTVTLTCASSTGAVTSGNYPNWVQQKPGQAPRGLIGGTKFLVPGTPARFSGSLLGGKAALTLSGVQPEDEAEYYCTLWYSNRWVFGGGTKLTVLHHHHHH", "protocol": "as §1"}, "[20]": {"molecular_target": "T20, anti-DLL3 trispecific protein with DLL3 binding domain 51C02", "T20 construct": "trispecific, one chain", "protocol": "as §1"}, "[21]": {"molecular_target": "T21, anti-DLL3 trispecific protein with DLL3 binding domain 42C07", "T21 construct": "trispecific, one chain", "protocol": "as §1"}, "[22]": {"molecular_target": "T22, anti-DLL3 trispecific protein with DLL3 binding domain 53A04", "T22 construct": "trispecific, one chain", "protocol": "as §1"}, "[23]": {"molecular_target": "T23, anti-DLL3 trispecific protein with DLL3 binding domain 42F01", "T23 construct": "trispecific, one chain", "protocol": "as §1"}, "[24]": {"molecular_target": "T24, anti-DLL3 trispecific protein with DLL3 binding domain 42E06", "T24 construct": "trispecific, one chain", "T24 sequence (chain, as listed by the source)": "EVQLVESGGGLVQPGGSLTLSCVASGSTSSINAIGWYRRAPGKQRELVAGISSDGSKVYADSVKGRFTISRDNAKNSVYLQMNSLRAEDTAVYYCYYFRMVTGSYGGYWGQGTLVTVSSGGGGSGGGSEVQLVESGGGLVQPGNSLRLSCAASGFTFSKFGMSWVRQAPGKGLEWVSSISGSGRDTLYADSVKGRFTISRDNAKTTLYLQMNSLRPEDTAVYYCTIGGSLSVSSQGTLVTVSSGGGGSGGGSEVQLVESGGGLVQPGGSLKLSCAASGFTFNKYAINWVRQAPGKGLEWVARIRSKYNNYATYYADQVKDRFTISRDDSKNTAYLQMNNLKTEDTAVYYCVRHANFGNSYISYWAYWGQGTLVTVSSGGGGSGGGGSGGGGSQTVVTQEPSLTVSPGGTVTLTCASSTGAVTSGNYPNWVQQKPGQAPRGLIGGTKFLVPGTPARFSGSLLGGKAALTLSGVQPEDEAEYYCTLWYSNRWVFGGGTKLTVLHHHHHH", "protocol": "as §1"}, "[25]": {"molecular_target": "T25, anti-DLL3 trispecific protein with DLL3 binding domain 42B06", "T25 construct": "trispecific, one chain", "protocol": "as §1"}, "[26]": {"molecular_target": "T26, anti-DLL3 trispecific protein with DLL3 binding domain 42C03", "T26 construct": "trispecific, one chain", "protocol": "as §1"}, "[27]": {"molecular_target": "T27, anti-DLL3 trispecific protein with DLL3 binding domain 51A02", "T27 construct": "trispecific, one chain", "T27 sequence (chain, as listed by the source)": "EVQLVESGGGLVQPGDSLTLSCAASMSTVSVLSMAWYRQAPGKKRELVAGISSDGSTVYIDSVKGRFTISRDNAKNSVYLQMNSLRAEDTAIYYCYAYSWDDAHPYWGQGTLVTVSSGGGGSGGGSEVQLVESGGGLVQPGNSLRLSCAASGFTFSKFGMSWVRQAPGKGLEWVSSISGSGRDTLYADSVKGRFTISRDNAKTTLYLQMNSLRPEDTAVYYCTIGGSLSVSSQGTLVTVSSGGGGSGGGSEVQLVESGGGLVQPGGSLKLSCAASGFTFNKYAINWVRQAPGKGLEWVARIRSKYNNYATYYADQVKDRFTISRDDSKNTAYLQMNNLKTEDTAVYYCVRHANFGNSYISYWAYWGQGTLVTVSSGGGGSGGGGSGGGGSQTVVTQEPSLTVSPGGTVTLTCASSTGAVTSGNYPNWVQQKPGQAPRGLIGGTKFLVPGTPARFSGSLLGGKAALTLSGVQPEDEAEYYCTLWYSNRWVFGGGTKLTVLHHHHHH", "protocol": "as §1"}}, "data": [{"binder": "B1", "values": [{"measurement": "Kd", "setting": "[1]", "result": 34, "unit": "nM"}, {"measurement": "Kd", "setting": "[2]", "result": 4.8, "unit": "nM"}, {"measurement": "Kd", "setting": "[3]", "result": 3.4, "unit": "nM"}, {"measurement": "Kd", "setting": "[4]", "result": 3.6, "unit": "nM"}, {"measurement": "Kd", "setting": "[5]", "result": 7.9, "unit": "nM"}, {"measurement": "Kd", "setting": "[6]", "result": 0.5, "unit": "nM"}, {"measurement": "Kd", "setting": "[7]", "result": 3.2, "unit": "nM"}, {"measurement": "Kd", "setting": "[8]", "result": 3.5, "unit": "nM"}, {"measurement": "Kd", "setting": "[9]", "result": 2.4, "unit": "nM"}, {"measurement": "Kd", "setting": "[10]", "result": 3.3, "unit": "nM"}, {"measurement": "Kd", "setting": "[11]", "result": 0.5, "unit": "nM"}, {"measurement": "Kd", "setting": "[12]", "result": 2.9, "unit": "nM"}, {"measurement": "Kd", "setting": "[13]", "result": 0.6, "unit": "nM"}, {"measurement": "Kd", "setting": "[14]", "result": 1, "unit": "nM"}, {"measurement": "Kd", "setting": "[15]", "result": 0.6, "unit": "nM"}, {"measurement": "Kd", "setting": "[16]", "result": 0.92, "unit": "nM"}, {"measurement": "Kd", "setting": "[17]", "result": 1.4, "unit": "nM"}, {"measurement": "Kd", "setting": "[18]", "result": 17, "unit": "nM"}, {"measurement": "Kd", "setting": "[19]", "result": 2.7, "unit": "nM"}, {"measurement": "Kd", "setting": "[20]", "result": 7.5, "unit": "nM"}, {"measurement": "Kd", "setting": "[21]", "result": 6.4, "unit": "nM"}, {"measurement": "Kd", "setting": "[22]", "result": 0.42, "unit": "nM"}, {"measurement": "Kd", "setting": "[23]", "result": 5.5, "unit": "nM"}, {"measurement": "Kd", "setting": "[24]", "result": 3.8, "unit": "nM"}, {"measurement": "Kd", "setting": "[25]", "result": 3.2, "unit": "nM"}, {"measurement": "Kd", "setting": "[26]", "result": 0.88, "unit": "nM"}, {"measurement": "Kd", "setting": "[27]", "result": 1.2, "unit": "nM"}]}]}
